Results from article PMC9060471, “Oleic acid is an endogenous ligand of TLX/NR2E1 that triggers hippocampal neurogenesis” (Proceedings of the National Academy of Sciences of the …, 2022).

Target: T1, 6xHis-TLX ligand-binding domain (UniProt Q9Y466 155-385)
T1 construct: Construct limits, species and expression host should stand in the SI Appendix (methods); also called TLX LBD; NR2E1; source: purified
Experiment: AlphaScreen or HTRF; ALPHA competition experiments in the presence of saturating 18:1ω9
Settings: both partners purified

T1 sequence (Q9Y466 155-385): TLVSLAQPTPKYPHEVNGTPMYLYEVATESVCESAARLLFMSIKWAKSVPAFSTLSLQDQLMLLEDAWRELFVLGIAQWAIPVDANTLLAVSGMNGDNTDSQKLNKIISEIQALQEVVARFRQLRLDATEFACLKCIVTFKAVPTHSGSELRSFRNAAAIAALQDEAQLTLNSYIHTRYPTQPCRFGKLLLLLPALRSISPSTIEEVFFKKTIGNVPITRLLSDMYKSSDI

EC50 with 18:1ω9: 3.3 µM
B1: receptor-interaction domain from NCOA3 (domain or fragment, UniProt Q9Y6Q9 621-821, looked up)
chain: LLQLLTCSSDDRGHSSLTNSPLDSSCKESSVSVTSPSGVSSSTSGGVSSTSNMHGSLLQEKHRILHKLLQNGNSPAEVAKITAEATGKDTSSITSCGDGNVVKQEQLSPKKKENNALLRYLLDRDDPSDALSKELQPQVEGVDNKMSQCTSSTIPSSSQEKDPKIKTETSEEGSGDLDNLDAILGDLTSSDFYNNSISSNG
notes: The methods name an AlphaScreen GST Detection Kit, so a GST fusion may have been used somewhere; see SI Appendix; also called SRC3
